# T1: human aryl hydrocarbon receptor (AHR), full length (human, UniProt P35869 1-848)
# T1 construct: Full length in yeast (PRSAHR) and in the Hsp90 co-IP (huAHR); also called huAHR; Ah receptor
# T1 sequence (looked up): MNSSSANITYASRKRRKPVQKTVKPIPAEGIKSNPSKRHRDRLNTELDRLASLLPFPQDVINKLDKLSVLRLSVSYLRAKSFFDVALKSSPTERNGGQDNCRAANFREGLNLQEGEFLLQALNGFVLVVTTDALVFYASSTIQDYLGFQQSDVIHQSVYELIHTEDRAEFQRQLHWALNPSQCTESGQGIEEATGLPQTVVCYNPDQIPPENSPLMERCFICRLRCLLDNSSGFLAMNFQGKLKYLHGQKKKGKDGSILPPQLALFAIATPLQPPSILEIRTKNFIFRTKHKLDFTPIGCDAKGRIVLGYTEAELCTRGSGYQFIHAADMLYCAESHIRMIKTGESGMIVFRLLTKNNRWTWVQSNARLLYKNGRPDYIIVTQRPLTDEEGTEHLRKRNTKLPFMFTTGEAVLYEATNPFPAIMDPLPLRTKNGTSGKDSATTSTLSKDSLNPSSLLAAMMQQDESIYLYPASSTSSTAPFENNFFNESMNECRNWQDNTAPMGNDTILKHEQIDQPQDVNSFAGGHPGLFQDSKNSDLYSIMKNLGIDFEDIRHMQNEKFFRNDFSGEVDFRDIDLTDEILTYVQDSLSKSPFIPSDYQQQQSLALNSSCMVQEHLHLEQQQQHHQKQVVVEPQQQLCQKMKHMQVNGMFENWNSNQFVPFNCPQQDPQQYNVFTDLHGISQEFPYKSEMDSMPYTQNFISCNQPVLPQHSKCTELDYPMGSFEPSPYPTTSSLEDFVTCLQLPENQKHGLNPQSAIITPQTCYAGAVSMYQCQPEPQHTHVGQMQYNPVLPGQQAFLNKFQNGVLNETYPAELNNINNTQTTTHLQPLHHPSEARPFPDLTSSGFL
# B1: LexAMOP4 (other)
# chain: MKALTARQQEVFDLIRDHISQTGMPPTRAEIAQRLGFRSPNAAEEHLKALARKGVIEIVSGASRGIRLLQEEEEGLPLVGRVAAGEPLLAQQHIEGHYQVDPSLFKPNADFLLRVSGMSMKDIGIMDGDLLAVHKTQDVRNGQVVVARIDDEVTVKRLKKQGNKVELLPENSEFKPIVVDLRQQSFTIEGLAVGVIRNGDWLMDEDEKDRAKRASRNKSEKKRRDQFNVLIKELSSMLPGNTRKMDKTTVLEEVIGFLQKHNEVSAQTEICDIQQDWKPSFLSNEEFTQLMLEALDGFIIAVTTDGSIIYVSDSITPLLGHLPSDVMDQNLLNFLPEQEHSEVYKILSSHMLVTDSPSPEYLKSDGDLEFYCHLLRGSLNPKEFPTYEYIKFVGNFRSYNNVPSPSCNGFDNTLSRPCRVPLGKEVCFIATVRLATPQFLKEMCIVDEPLEEFTSRHSLEWKFLFLDHRAPPIIGYLPFEVLGTSGYDYYHIDDLELLARCHQHLMQFGKGKSCCYRFLTKGQQWIWLQTHYYITYHQWNSKPEFIVCTHSVVSYADVRVERRQELA
# notes: range 1-202; also called LexAbHLH-PAS fusion of MOP4; MOP4 bait plasmid
# What was measured:
# [1] = target: T1, human aryl hydrocarbon receptor (AHR), …; experiment: yeast two-hybrid, lacZ reporter, with and without 1 µM βNF
# Source text: (§1) This plasmid was designated PL371, and subsequently was digested with NotI and XhoI, this fragment cloned into the corresponding sites of pSGBCU11. This clone was designated PL574. The LexAMOP fusion protein constructs were cotransformed with a yeast expression vector containing the full length AHR or ARNT into L40, a yeast strain containing integrated lacZ and HIS3 reporter genes. As controls, LexAAHR and LexAARNT were cotransformed with AHR and ARNT. The strength of interaction was visually characterized by X-Gal (5-bromo-4-chloro-3-indolyl-(-D-galactoside) plate assays, performed after three days growth on selective media (Bohen et al, Proc. Natl. Acad. Sci. USA 90: 11424–11428, 1993). To provide quantitation of the interaction strength, multiple colonies from yeast harboring each bHLH-PAS combination colonies were grown overnight in liquid media. Liquid cultures were grown for 5 hours, and assayed for lacZ activity using the Galacto-Light chemiluminescence reporter system (Tropix, Bedford, Mass.). To determine the effect of AHR agonists on these interactions, yeast were also grown on plates or in liquid culture with and without 1 μM βNF (Carver et al., J. Biol. Chem. 269: 30109–30112, 1994).
# (§2) 2. Interaction of MOPs with the AHR and ARNT in vivo; Yeast two-hybrid experiments. […]
# [2] = target: T2, AH receptor nuclear translocator (ARNT), full length (human, UniProt P27540 1-789); experiment: yeast two-hybrid with full-length ARNT, lacZ reporter
# T2 construct: Full length: in vitro translated, expressed in yeast (PL574) or transfected; Endogenous ARNT in the Hep3B experiment; also called huARNT; hARNT
# Source text: as §1, §2
# T2 sequence (P27540 whole entry): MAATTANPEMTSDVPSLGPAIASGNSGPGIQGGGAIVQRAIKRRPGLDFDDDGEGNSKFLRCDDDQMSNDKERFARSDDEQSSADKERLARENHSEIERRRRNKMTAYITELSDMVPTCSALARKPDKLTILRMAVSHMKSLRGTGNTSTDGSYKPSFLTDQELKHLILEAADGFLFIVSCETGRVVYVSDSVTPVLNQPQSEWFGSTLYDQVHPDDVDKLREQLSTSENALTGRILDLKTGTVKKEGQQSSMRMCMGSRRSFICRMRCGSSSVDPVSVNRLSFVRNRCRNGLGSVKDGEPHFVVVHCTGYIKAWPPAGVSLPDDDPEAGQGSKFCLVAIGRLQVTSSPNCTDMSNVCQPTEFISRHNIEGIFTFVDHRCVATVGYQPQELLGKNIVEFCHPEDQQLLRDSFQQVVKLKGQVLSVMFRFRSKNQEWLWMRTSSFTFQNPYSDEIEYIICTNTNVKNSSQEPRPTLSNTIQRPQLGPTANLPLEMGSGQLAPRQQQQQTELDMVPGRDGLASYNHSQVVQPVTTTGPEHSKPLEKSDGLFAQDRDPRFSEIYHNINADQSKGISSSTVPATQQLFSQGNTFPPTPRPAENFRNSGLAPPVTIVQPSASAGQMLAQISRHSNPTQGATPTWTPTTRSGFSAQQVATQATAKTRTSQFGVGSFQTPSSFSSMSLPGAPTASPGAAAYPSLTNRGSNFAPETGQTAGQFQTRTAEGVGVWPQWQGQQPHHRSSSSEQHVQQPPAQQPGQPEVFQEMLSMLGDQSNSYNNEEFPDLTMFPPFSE
binder,measurement,setting,value
B1,binding result,[1],no binding
same,binding result,[2],no binding

# From patent US7105647 (WISCONSIN ALUMNI RESEARCH FOUNDATION, dated 2006)
